Data reported in patent US20150344570A1 (published 2015).

T1: FcγRIIb extracellular domain with C-terminal His tag (human, UniProt P31994 43-217)
T1 construct: extracellular domain; Soluble receptor expressed in FreeStyle293 cells, used as analyte in Biacore; also called FcgRIIb; 2b
T1 sequence (looked up): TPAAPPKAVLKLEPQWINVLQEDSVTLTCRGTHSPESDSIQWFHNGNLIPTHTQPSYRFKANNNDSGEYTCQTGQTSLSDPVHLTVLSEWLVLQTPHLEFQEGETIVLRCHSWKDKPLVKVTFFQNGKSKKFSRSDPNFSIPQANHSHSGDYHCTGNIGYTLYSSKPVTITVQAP


Assays:
[1] = target: T2, FcγRIIIa extracellular domain with C-terminal His tag (human, UniProt P08637 17-208); assay: SPR (Biacore), antibody captured on antigen peptide chip, FcγR as analyte; GpH7-A5/GpH7-B3/GpL16-k0 = 100
T2 construct: extracellular domain; also called FcgRIIIa; 3a
T2 sequence (P08637 17-208): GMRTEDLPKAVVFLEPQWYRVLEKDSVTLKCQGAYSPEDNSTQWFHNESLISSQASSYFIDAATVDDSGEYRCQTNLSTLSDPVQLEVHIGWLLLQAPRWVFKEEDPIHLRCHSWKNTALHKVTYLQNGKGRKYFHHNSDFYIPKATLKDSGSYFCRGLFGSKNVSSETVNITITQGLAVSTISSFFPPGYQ
Description: (§1) The heterodimerized antibodies He Abs in which one of the H chains was introduced with an alteration were assayed for their binding activities to each activating FcγR and inhibitory FcγR according to the method described in Example 4. […] The activating FcγRs in FIGS. 26, 27, 28, and 29 are FcγRIa, FcγRIIa (R), FcγRIIa (H), and FcγRIIIa, respectively.
(§2) Analysis of interaction between objective antibody and the FcγR was carried out using Biacore T100 (GE Healthcare). HBS-EP+ (GE Healthcare) was used as the running buffer, and the measurement temperature was set to 25° C. Chips produced by immobilizing the antigen peptide by the amine coupling method to a Series S Sencor Chip CM5 (GE Healthcare), or alternatively, chips produced by allowing preliminarily biotinylated antigen peptides to interact with and immobilize onto a Series S Sensor Chip SA (certified) (GE Healthcare) were used. Antibodies of interest were captured onto an antigen peptide-immobilized chip, and allowed to interact to each FcγR diluted with running buffer. To regenerate and repeatedly use the chip, the antibodies captured on the chip were washed off by reacting 10 mM glycine-HCl, pH 1.5.

[2] = target: T1, FcγRIIb extracellular domain with …; assay: as above
Description: as §1, §2

[3] = target: T2, FcγRIIIa extracellular domain with …; assay: SPR (Biacore); He/Con_3a divided by He/Con_2b (FcγRIIIa against FcγRIIb)
Description: as §1, §2

He/Con_3a (relative binding activity) [1]	He/Con_2b (relative binding activity) [2]	He_3a/2b (IIIa/IIb) [3]	Binder
86.1 % of control	56.9 % of control	1.51 ratio	GpH7-A5/GpH7-B3 variant Q295_13S/GpL16-k0 (antibody, human IgG1, kappa, Heterodimerized anti-glypican-3 IgG1; mutation in the GpH7-B3 chain only; also called He Ab) heavy 1: not shown heavy 2: not shown light: DIVMTQSPLSLPVTPGEPASISCQASESLVHSNRNTYLHWYLQKPGQSPQLLIYKVSNRFSGVPDRFSGSGSGTDFTLKISRVEAEDVGVYYCSQNTHVPPTFGQGTKVEIERTVAAPSVFIFPPSDEQLKSGTASVVCLLNNFYPREAKVQWKVDNALQSGNSQESVTEQDSKDSTYSLSSTLTLSKADYEKHKVYACEVTHQGLSSPVTKSFNRGEC
81.6 % of control	64.9 % of control	1.26 ratio	GpH7-A5/GpH7-B3 variant Q295_18N/GpL16-k0 (antibody, human IgG1, kappa, Heterodimerized anti-glypican-3 IgG1; mutation in the GpH7-B3 chain only; also called He Ab) heavy 1: not shown heavy 2: not shown light: DIVMTQSPLSLPVTPGEPASISCQASESLVHSNRNTYLHWYLQKPGQSPQLLIYKVSNRFSGVPDRFSGSGSGTDFTLKISRVEAEDVGVYYCSQNTHVPPTFGQGTKVEIERTVAAPSVFIFPPSDEQLKSGTASVVCLLNNFYPREAKVQWKVDNALQSGNSQESVTEQDSKDSTYSLSSTLTLSKADYEKHKVYACEVTHQGLSSPVTKSFNRGEC
90.3 % of control	63.1 % of control	1.43 ratio	GpH7-A5/GpH7-B3 variant S324_12R/GpL16-k0 (antibody, human IgG1, kappa, Heterodimerized anti-glypican-3 IgG1; mutation in the GpH7-B3 chain only; also called He Ab) heavy 1: not shown heavy 2: not shown light: DIVMTQSPLSLPVTPGEPASISCQASESLVHSNRNTYLHWYLQKPGQSPQLLIYKVSNRFSGVPDRFSGSGSGTDFTLKISRVEAEDVGVYYCSQNTHVPPTFGQGTKVEIERTVAAPSVFIFPPSDEQLKSGTASVVCLLNNFYPREAKVQWKVDNALQSGNSQESVTEQDSKDSTYSLSSTLTLSKADYEKHKVYACEVTHQGLSSPVTKSFNRGEC
96.4 % of control	70.6 % of control	1.37 ratio	GpH7-A5/GpH7-B3 variant S298_07I/GpL16-k0 (antibody, human IgG1, kappa, Heterodimerized anti-glypican-3 IgG1; mutation in the GpH7-B3 chain only; also called He Ab) heavy 1: not shown heavy 2: not shown light: DIVMTQSPLSLPVTPGEPASISCQASESLVHSNRNTYLHWYLQKPGQSPQLLIYKVSNRFSGVPDRFSGSGSGTDFTLKISRVEAEDVGVYYCSQNTHVPPTFGQGTKVEIERTVAAPSVFIFPPSDEQLKSGTASVVCLLNNFYPREAKVQWKVDNALQSGNSQESVTEQDSKDSTYSLSSTLTLSKADYEKHKVYACEVTHQGLSSPVTKSFNRGEC
113 % of control	77.9 % of control	1.45 ratio	GpH7-A5/GpH7-B3 variant S298_14T/GpL16-k0 (antibody, human IgG1, kappa, Heterodimerized anti-glypican-3 IgG1; mutation in the GpH7-B3 chain only; also called He Ab) heavy 1: not shown heavy 2: not shown light: DIVMTQSPLSLPVTPGEPASISCQASESLVHSNRNTYLHWYLQKPGQSPQLLIYKVSNRFSGVPDRFSGSGSGTDFTLKISRVEAEDVGVYYCSQNTHVPPTFGQGTKVEIERTVAAPSVFIFPPSDEQLKSGTASVVCLLNNFYPREAKVQWKVDNALQSGNSQESVTEQDSKDSTYSLSSTLTLSKADYEKHKVYACEVTHQGLSSPVTKSFNRGEC
115 % of control	66.8 % of control	1.72 ratio	GpH7-A5/GpH7-B3 variant Q295_14T/GpL16-k0 (antibody, human IgG1, kappa, Heterodimerized anti-glypican-3 IgG1; mutation in the GpH7-B3 chain only; also called He Ab) heavy 1: not shown heavy 2: not shown light: DIVMTQSPLSLPVTPGEPASISCQASESLVHSNRNTYLHWYLQKPGQSPQLLIYKVSNRFSGVPDRFSGSGSGTDFTLKISRVEAEDVGVYYCSQNTHVPPTFGQGTKVEIERTVAAPSVFIFPPSDEQLKSGTASVVCLLNNFYPREAKVQWKVDNALQSGNSQESVTEQDSKDSTYSLSSTLTLSKADYEKHKVYACEVTHQGLSSPVTKSFNRGEC
104 % of control	78.3 % of control	1.33 ratio	GpH7-A5/GpH7-B3 variant S324_02A/GpL16-k0 (antibody, human IgG1, kappa, Heterodimerized anti-glypican-3 IgG1; mutation in the GpH7-B3 chain only; also called He Ab) heavy 1: not shown heavy 2: not shown light: DIVMTQSPLSLPVTPGEPASISCQASESLVHSNRNTYLHWYLQKPGQSPQLLIYKVSNRFSGVPDRFSGSGSGTDFTLKISRVEAEDVGVYYCSQNTHVPPTFGQGTKVEIERTVAAPSVFIFPPSDEQLKSGTASVVCLLNNFYPREAKVQWKVDNALQSGNSQESVTEQDSKDSTYSLSSTLTLSKADYEKHKVYACEVTHQGLSSPVTKSFNRGEC
85.6 % of control	61.4 % of control	1.39 ratio	GpH7-A5/GpH7-B3 variant S298_15Y/GpL16-k0 (antibody, human IgG1, kappa, Heterodimerized anti-glypican-3 IgG1; mutation in the GpH7-B3 chain only; also called He Ab) heavy 1: not shown heavy 2: not shown light: DIVMTQSPLSLPVTPGEPASISCQASESLVHSNRNTYLHWYLQKPGQSPQLLIYKVSNRFSGVPDRFSGSGSGTDFTLKISRVEAEDVGVYYCSQNTHVPPTFGQGTKVEIERTVAAPSVFIFPPSDEQLKSGTASVVCLLNNFYPREAKVQWKVDNALQSGNSQESVTEQDSKDSTYSLSSTLTLSKADYEKHKVYACEVTHQGLSSPVTKSFNRGEC
109 % of control	64.5 % of control	1.69 ratio	GpH7-A5/GpH7-B3 variant S298_03V/GpL16-k0 (antibody, human IgG1, kappa, Heterodimerized anti-glypican-3 IgG1; mutation in the GpH7-B3 chain only; also called He Ab) heavy 1: not shown heavy 2: not shown light: DIVMTQSPLSLPVTPGEPASISCQASESLVHSNRNTYLHWYLQKPGQSPQLLIYKVSNRFSGVPDRFSGSGSGTDFTLKISRVEAEDVGVYYCSQNTHVPPTFGQGTKVEIERTVAAPSVFIFPPSDEQLKSGTASVVCLLNNFYPREAKVQWKVDNALQSGNSQESVTEQDSKDSTYSLSSTLTLSKADYEKHKVYACEVTHQGLSSPVTKSFNRGEC
105 % of control	81.1 % of control	1.29 ratio	GpH7-A5/GpH7-B3 variant S324_01G/GpL16-k0 (antibody, human IgG1, kappa, Heterodimerized anti-glypican-3 IgG1; mutation in the GpH7-B3 chain only; also called He Ab) heavy 1: not shown heavy 2: not shown light: DIVMTQSPLSLPVTPGEPASISCQASESLVHSNRNTYLHWYLQKPGQSPQLLIYKVSNRFSGVPDRFSGSGSGTDFTLKISRVEAEDVGVYYCSQNTHVPPTFGQGTKVEIERTVAAPSVFIFPPSDEQLKSGTASVVCLLNNFYPREAKVQWKVDNALQSGNSQESVTEQDSKDSTYSLSSTLTLSKADYEKHKVYACEVTHQGLSSPVTKSFNRGEC
82.5 % of control	65.4 % of control	1.26 ratio	GpH7-A5/GpH7-B3 variant S298_04F/GpL16-k0 (antibody, human IgG1, kappa, Heterodimerized anti-glypican-3 IgG1; mutation in the GpH7-B3 chain only; also called He Ab) heavy 1: not shown heavy 2: not shown light: DIVMTQSPLSLPVTPGEPASISCQASESLVHSNRNTYLHWYLQKPGQSPQLLIYKVSNRFSGVPDRFSGSGSGTDFTLKISRVEAEDVGVYYCSQNTHVPPTFGQGTKVEIERTVAAPSVFIFPPSDEQLKSGTASVVCLLNNFYPREAKVQWKVDNALQSGNSQESVTEQDSKDSTYSLSSTLTLSKADYEKHKVYACEVTHQGLSSPVTKSFNRGEC
76.5 % of control	63.5 % of control	1.2 ratio	GpH7-A5/GpH7-B3 variant S298_16H/GpL16-k0 (antibody, human IgG1, kappa, Heterodimerized anti-glypican-3 IgG1; mutation in the GpH7-B3 chain only; also called He Ab) heavy 1: not shown heavy 2: not shown light: DIVMTQSPLSLPVTPGEPASISCQASESLVHSNRNTYLHWYLQKPGQSPQLLIYKVSNRFSGVPDRFSGSGSGTDFTLKISRVEAEDVGVYYCSQNTHVPPTFGQGTKVEIERTVAAPSVFIFPPSDEQLKSGTASVVCLLNNFYPREAKVQWKVDNALQSGNSQESVTEQDSKDSTYSLSSTLTLSKADYEKHKVYACEVTHQGLSSPVTKSFNRGEC
76.4 % of control	62.7 % of control	1.22 ratio	GpH7-A5/GpH7-B3 variant Q295_16H/GpL16-k0 (antibody, human IgG1, kappa, Heterodimerized anti-glypican-3 IgG1; mutation in the GpH7-B3 chain only; also called He Ab) heavy 1: not shown heavy 2: not shown light: DIVMTQSPLSLPVTPGEPASISCQASESLVHSNRNTYLHWYLQKPGQSPQLLIYKVSNRFSGVPDRFSGSGSGTDFTLKISRVEAEDVGVYYCSQNTHVPPTFGQGTKVEIERTVAAPSVFIFPPSDEQLKSGTASVVCLLNNFYPREAKVQWKVDNALQSGNSQESVTEQDSKDSTYSLSSTLTLSKADYEKHKVYACEVTHQGLSSPVTKSFNRGEC
83 % of control	68.6 % of control	1.21 ratio	GpH7-A5/GpH7-B3 variant S324_11K/GpL16-k0 (antibody, human IgG1, kappa, Heterodimerized anti-glypican-3 IgG1; mutation in the GpH7-B3 chain only; also called He Ab) heavy 1: not shown heavy 2: not shown light: DIVMTQSPLSLPVTPGEPASISCQASESLVHSNRNTYLHWYLQKPGQSPQLLIYKVSNRFSGVPDRFSGSGSGTDFTLKISRVEAEDVGVYYCSQNTHVPPTFGQGTKVEIERTVAAPSVFIFPPSDEQLKSGTASVVCLLNNFYPREAKVQWKVDNALQSGNSQESVTEQDSKDSTYSLSSTLTLSKADYEKHKVYACEVTHQGLSSPVTKSFNRGEC
99.3 % of control	77.4 % of control	1.28 ratio	GpH7-A5/GpH7-B3 variant S324_10E/GpL16-k0 (antibody, human IgG1, kappa, Heterodimerized anti-glypican-3 IgG1; mutation in the GpH7-B3 chain only; also called He Ab) heavy 1: not shown heavy 2: not shown light: DIVMTQSPLSLPVTPGEPASISCQASESLVHSNRNTYLHWYLQKPGQSPQLLIYKVSNRFSGVPDRFSGSGSGTDFTLKISRVEAEDVGVYYCSQNTHVPPTFGQGTKVEIERTVAAPSVFIFPPSDEQLKSGTASVVCLLNNFYPREAKVQWKVDNALQSGNSQESVTEQDSKDSTYSLSSTLTLSKADYEKHKVYACEVTHQGLSSPVTKSFNRGEC
66.7 % of control	48.3 % of control	1.38 ratio	GpH7-A5/GpH7-B3 variant S298_09D/GpL16-k0 (antibody, human IgG1, kappa, Heterodimerized anti-glypican-3 IgG1; mutation in the GpH7-B3 chain only; also called He Ab) heavy 1: not shown heavy 2: not shown light: DIVMTQSPLSLPVTPGEPASISCQASESLVHSNRNTYLHWYLQKPGQSPQLLIYKVSNRFSGVPDRFSGSGSGTDFTLKISRVEAEDVGVYYCSQNTHVPPTFGQGTKVEIERTVAAPSVFIFPPSDEQLKSGTASVVCLLNNFYPREAKVQWKVDNALQSGNSQESVTEQDSKDSTYSLSSTLTLSKADYEKHKVYACEVTHQGLSSPVTKSFNRGEC
